Experimental findings from patent US20040248081, “LANA viral protein binding sites” (THE REGENTS OF THE UNIVERSITY OF MICHIGAN, published 2004) are described below.

Data set [1] has as its target LANA 9-11 (last 237 aa) (Kaposi's sarcoma-associated herpesvirus, UniProt Q9QR71 SEQ:926-1162). As to the kind of experiment: EMSA; lacks leucine zipper; anti-LANA supershift. To be noted: tags: GST; label: radiolabel.
Data set [2] has as its target T1, LANA 1-950 (Kaposi's sarcoma-associated herpesvirus).
T1 chain: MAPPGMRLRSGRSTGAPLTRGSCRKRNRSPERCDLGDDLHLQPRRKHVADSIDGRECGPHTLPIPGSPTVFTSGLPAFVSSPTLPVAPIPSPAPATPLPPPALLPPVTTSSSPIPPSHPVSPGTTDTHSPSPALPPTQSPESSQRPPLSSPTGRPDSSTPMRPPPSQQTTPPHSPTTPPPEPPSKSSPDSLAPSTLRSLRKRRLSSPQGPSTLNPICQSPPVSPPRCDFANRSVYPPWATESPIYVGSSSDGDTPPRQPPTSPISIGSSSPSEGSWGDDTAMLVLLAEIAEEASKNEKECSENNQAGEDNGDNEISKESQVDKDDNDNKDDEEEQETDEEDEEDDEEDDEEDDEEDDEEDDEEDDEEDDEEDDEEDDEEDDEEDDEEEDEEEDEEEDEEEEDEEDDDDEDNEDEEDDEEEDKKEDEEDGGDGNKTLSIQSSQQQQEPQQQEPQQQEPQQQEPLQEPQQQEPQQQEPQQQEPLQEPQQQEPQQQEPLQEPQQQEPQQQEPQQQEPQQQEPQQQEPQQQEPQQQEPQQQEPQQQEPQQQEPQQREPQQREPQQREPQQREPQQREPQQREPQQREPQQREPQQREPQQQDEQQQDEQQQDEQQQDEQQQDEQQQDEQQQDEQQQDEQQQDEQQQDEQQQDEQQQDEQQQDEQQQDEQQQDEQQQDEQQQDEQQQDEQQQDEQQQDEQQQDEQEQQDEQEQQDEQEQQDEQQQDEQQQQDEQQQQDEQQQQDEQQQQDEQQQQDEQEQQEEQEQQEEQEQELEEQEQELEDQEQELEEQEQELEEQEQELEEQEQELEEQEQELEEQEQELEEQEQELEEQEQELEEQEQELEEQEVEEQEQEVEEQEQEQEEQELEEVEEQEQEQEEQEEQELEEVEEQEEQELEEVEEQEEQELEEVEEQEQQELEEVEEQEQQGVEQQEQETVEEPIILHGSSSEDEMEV
Put plainly: EMSA. To be noted: label: radiolabel.

Sequence of LANA 9-11 (last 237 aa) (Q9QR71 893-1129): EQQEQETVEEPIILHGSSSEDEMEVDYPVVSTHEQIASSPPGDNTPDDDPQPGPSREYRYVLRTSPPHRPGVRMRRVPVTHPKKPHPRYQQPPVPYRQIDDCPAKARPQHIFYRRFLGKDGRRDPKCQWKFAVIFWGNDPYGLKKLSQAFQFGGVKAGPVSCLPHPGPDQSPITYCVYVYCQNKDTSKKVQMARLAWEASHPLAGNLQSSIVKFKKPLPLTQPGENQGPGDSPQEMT

B1: TLBR4 (dsDNA)
DNA 1: TCCCGCCCGGGCATGGG
DNA 2: CCCATGCCCGGGCGGGA
On to B1, for which the values for the binding result in data set [1] and in data set [2] were “binds” and “no binding”, respectively.
